Substrate in the series: NC(=O)C1=CN([C@@H]2O[C@H](COP(=O)(O)OP(=O)(O)OC[C@H]3O[C@@H](n4cnc5c(N)ncnc54)[C@H](O)[C@@H]3O)[C@@H](O)[C@H]2O)C=CC1
Put plainly: cells, lysate or membranes. The series is classed as biochemical, Arabidopsis thaliana. The following applies: rotenone-resistant activity in AtNDA2-transfected control fibroblasts, DCQ 50 μM, rotenone 8 μM, KCN 650 μM, 10 mM KH2PO4 pH 7.2, BSA, 37 °C.

B1: AtNDA2 (Arabidopsis thaliana) (protein)
chain: SPAKIPNDVDRSQYSGLPPTREGEKPRVVVLGSGWAGCRLMKGIDTNLYDVVCVSPRNHMVFTPLLASTCVGTLEFRSVAEPISRIQPAISREPGSFFFLANCSRLDADAHEVHCETLTDGLNTLKPWKFKIAYDKLVIASGAEASTFGIHGVMENAIFLREVHHAQEIRRKLLLNLMLSDTPGISKEEKRRLLHCVVVGGGPTGVEFSGELSDFIMKDVRQRYAHVKDDIHVTLIEARDILSSFDDRLRRYAIKQLNKSGVRFVRGIVKDVQSQKLILDDGTEVPYGLLVWSTGVGPSPFVRSLGLPKDPTGRIGIDEWMRVPSVQDVFAIGDCSGYLETTGKPTLPALAQVAEREGKYLANLLNAIGKGNGGRANSAKEIELGVPFVYKHLGSMATIGRYKALVDLRESKDAKGISMTGFVSWFIWRSAYLTRVISWRNRFYVAINWFTTFVFGRDISRI
notes: lentiviral expression in human control fibroblasts (NHDF); permeabilised cells
In general, Km refers to the concentration of substrate that gives half-maximal velocity. On to B1, for which the Michaelis-Menten constant (Km) stood at 9.7 ± 3.3 µM.

The values above are taken from paper PMC6821020, “Arabidopsis thaliana alternative dehydrogenases: a potential therapy for mitochondrial complex I deficiency? Perspectives and pitfalls” (Orphanet Journal of Rare Diseases, 2019).
